Holding throughout (assay): pull-down
The target of experiment [1] is fibrillarin F>S (six phenylalanines of the N-terminal GF-IDR replaced with serines) (human) (UniProt P22087).
Experiment [2] has the same target. The source holds these as a separate data set.
The target in another experiment is T1, MBP-GAR1 (full-length) (human, UniProt Q9NY12 1-217).
T1 sequence (looked up): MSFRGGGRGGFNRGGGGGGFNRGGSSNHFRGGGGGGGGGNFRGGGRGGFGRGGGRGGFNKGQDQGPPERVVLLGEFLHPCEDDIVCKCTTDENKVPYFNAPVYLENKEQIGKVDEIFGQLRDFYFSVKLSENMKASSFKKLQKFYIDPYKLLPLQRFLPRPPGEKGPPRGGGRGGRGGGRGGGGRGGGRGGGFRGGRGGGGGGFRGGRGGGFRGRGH

Experiment [3] addresses T2, MBP-fibrillarin (full-length) (human, UniProt P22087 1-321).
T2 sequence (looked up): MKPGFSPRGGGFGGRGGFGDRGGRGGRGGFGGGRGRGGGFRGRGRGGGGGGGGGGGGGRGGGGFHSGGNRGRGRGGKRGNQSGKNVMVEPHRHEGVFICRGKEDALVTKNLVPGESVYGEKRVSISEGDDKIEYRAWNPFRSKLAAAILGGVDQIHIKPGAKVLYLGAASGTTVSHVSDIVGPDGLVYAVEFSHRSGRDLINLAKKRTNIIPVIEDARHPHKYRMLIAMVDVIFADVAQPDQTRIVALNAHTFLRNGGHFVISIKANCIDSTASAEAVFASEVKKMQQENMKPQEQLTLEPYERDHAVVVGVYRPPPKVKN

A further experiment deals with MBP-NOP58 ΔNLS (human) (UniProt Q9Y2X3).
Experiment [4] addresses T3, MBP fused to the C-terminal NLS IDR of NAP57 (92aa) (human).
T3 sequence (O60832 whole entry, looked up): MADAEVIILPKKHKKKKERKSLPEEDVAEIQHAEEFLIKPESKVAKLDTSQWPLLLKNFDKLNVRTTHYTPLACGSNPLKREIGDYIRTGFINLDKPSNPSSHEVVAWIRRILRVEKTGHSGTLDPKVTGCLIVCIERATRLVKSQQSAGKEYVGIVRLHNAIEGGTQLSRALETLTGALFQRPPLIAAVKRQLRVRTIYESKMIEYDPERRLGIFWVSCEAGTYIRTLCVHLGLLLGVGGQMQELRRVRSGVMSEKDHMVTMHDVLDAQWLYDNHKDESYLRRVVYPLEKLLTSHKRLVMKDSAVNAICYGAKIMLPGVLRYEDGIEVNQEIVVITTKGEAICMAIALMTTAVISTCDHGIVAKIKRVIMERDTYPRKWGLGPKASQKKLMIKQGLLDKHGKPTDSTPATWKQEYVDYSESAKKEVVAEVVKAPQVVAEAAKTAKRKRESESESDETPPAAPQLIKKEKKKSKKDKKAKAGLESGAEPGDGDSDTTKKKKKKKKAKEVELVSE

Like-named read-outs stand apart in the source and are kept apart here.

Chain of MBP-NOP58 ΔNLS (human) (Q9Y2X3 whole entry, stated change not applied, the tested form may be a part): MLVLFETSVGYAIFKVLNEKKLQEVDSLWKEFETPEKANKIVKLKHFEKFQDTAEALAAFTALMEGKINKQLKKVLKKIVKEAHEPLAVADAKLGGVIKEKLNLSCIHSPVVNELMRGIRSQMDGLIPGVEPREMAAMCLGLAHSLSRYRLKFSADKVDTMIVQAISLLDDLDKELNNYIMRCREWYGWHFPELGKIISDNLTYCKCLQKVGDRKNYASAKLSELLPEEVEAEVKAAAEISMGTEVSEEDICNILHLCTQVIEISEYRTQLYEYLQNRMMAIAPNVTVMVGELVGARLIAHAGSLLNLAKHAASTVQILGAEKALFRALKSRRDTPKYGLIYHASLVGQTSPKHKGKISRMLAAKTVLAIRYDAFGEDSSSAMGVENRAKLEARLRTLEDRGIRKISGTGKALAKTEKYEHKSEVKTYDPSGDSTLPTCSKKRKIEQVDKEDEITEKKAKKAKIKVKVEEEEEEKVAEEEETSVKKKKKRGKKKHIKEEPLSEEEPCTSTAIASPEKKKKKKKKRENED

B1: GST-GAR1 (natural protein, human, UniProt Q9NY12 1-217, looked up)
chain: MSFRGGGRGGFNRGGGGGGFNRGGSSNHFRGGGGGGGGGNFRGGGRGGFGRGGGRGGFNKGQDQGPPERVVLLGEFLHPCEDDIVCKCTTDENKVPYFNAPVYLENKEQIGKVDEIFGQLRDFYFSVKLSENMKASSFKKLQKFYIDPYKLLPLQRFLPRPPGEKGPPRGGGRGGRGGGRGGGGRGGGRGGGFRGGRGGGGGGFRGGRGGGFRGRGH
For B1, the reduction of binding relative to wild-type fibrillarin is 35% in experiment [1] and 40% in experiment [2]. The binding result (with MBP-GAR1 (full-length); in experiment [3]) was “binds” throughout.

B2: GFP-Nopp140 (phosphorylated) (natural protein)
chain: MADAGIRRVVPSDLYPLVLGFLRDNQLSEVANKFAKATGATQQDANASSLLDIYSFWLKSAKVPERKLQANGPVAKKAKKKASSSDSEDSSEEEEEVQGPPAKKAAVPAKRVGLPPGKAAAKASESSSSEESSDDDDEEDQKKQPVQKGVKPQAKAAKAPPKKAKSSDSDSDSSSEDEPPKNQKPKITPVTVKAQTKAPPKPARAAPKIANGKAASSSSSSSSSSSSDDSEEEKAAATPKKTVPKKQVVAKAPVKAATTPTRKSSSSEDSSSDEEEEQKKPMKNKPGPYSSVPPPSAPPPKKSLGTQPPKKAVEKQQPVESSEDSSDESDSSSEEEKKPPTKAVVSKATTKPPPAKKAAESSSDSSDSDSSEDDEAPSKPAGTTKNSSNKPAVTTKSPAVKPAAAPKQPVGGGQKLLTRKADSSSSEEESSSSEEEKTKKMVATTKPKATAKAALSLPAKQAPQGSRDSSSDSDSSSSEEEEEKTSKSAVKKKPQKVAGGAAPSKPASAKKGKAESSNSSSSDDSSEEEEEKLKGKGSPRPQAPKANGTSALTAQNGKAAKNSEEEEEEKKKAAVVVSKSGSLKKRKQNEAAKEAETPQAKKIKLQTPNTFPKRKKGEKRASSPFRRVREEEIEVDSRVADNSFDAKRGAAGDWGERANQVLKFTKGKSFRHEKTKKKRGSYRGGSISVQVNSIKFDSE
modifications: serines of the acidic serine repeats phosphorylated (expressed in insect cells to be fully phosphorylated)
For B2, in the experiment with MBP-NOP58 ΔNLS (human), the GFP-Nopp140 pulled down relative to WT MBP-NOP58 was 20%.

B3: Nopp140 (phosphorylated, hexa histidine tagged) (natural protein)
chain: MADAGIRRVVPSDLYPLVLGFLRDNQLSEVANKFAKATGATQQDANASSLLDIYSFWLKSAKVPERKLQANGPVAKKAKKKASSSDSEDSSEEEEEVQGPPAKKAAVPAKRVGLPPGKAAAKASESSSSEESSDDDDEEDQKKQPVQKGVKPQAKAAKAPPKKAKSSDSDSDSSSEDEPPKNQKPKITPVTVKAQTKAPPKPARAAPKIANGKAASSSSSSSSSSSSDDSEEEKAAATPKKTVPKKQVVAKAPVKAATTPTRKSSSSEDSSSDEEEEQKKPMKNKPGPYSSVPPPSAPPPKKSLGTQPPKKAVEKQQPVESSEDSSDESDSSSEEEKKPPTKAVVSKATTKPPPAKKAAESSSDSSDSDSSEDDEAPSKPAGTTKNSSNKPAVTTKSPAVKPAAAPKQPVGGGQKLLTRKADSSSSEEESSSSEEEKTKKMVATTKPKATAKAALSLPAKQAPQGSRDSSSDSDSSSSEEEEEKTSKSAVKKKPQKVAGGAAPSKPASAKKGKAESSNSSSSDDSSEEEEEKLKGKGSPRPQAPKANGTSALTAQNGKAAKNSEEEEEEKKKAAVVVSKSGSLKKRKQNEAAKEAETPQAKKIKLQTPNTFPKRKKGEKRASSPFRRVREEEIEVDSRVADNSFDAKRGAAGDWGERANQVLKFTKGKSFRHEKTKKKRGSYRGGSISVQVNSIKFDSE
modifications: serines of the acidic serine repeats phosphorylated (expressed in insect cells to be fully phosphorylated)
On to B3, for which, in experiment [4], the Nopp140 pulled down relative to full-length NAP57 is 50%.

The values above are taken from publication doi:10.1101/2025.06.18.660405 (bioRxiv, 2025).
